The values below come from patent publication US8658372.

The assay concerns the target botulinum toxoid A (UniProt P0DPI0). Description: Luminex AMP-capture assay with antibody tracers.

Sequence of botulinum toxoid A (P0DPI0 2-1296): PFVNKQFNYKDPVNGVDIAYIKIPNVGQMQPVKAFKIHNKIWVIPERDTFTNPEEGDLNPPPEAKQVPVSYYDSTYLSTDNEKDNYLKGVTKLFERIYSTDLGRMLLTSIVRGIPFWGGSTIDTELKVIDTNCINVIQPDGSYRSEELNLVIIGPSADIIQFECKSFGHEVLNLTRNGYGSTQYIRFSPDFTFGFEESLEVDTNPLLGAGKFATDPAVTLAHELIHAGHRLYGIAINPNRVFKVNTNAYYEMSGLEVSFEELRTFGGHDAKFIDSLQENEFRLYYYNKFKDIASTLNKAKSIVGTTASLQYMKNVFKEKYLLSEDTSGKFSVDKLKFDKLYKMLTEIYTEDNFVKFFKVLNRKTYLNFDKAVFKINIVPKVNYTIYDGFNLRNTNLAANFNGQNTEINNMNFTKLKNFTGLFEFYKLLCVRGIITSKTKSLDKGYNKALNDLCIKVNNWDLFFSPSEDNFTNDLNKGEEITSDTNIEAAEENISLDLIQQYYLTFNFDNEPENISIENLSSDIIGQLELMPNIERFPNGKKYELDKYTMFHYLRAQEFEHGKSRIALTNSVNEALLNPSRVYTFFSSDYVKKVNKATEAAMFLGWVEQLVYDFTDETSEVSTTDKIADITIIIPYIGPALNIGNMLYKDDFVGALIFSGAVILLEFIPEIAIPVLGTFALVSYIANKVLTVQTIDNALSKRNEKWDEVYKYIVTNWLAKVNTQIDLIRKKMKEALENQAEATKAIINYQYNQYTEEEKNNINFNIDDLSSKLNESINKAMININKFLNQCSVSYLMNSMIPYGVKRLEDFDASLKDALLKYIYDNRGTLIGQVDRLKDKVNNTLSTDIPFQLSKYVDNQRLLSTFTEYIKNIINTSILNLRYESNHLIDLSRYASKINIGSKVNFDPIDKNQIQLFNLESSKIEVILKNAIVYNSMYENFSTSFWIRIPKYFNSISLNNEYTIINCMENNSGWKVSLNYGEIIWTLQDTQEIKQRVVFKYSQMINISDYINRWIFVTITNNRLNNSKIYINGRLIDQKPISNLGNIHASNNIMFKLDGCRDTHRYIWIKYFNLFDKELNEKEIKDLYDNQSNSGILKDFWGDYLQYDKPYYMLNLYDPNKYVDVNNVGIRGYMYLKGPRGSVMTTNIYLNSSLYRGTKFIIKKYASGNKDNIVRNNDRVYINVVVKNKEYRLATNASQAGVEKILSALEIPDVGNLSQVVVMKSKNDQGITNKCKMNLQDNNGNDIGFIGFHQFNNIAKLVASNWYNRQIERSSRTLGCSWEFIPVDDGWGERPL

Substance AMP-derivatized Luminex beads showed a lowest detectable concentration of 1 µg/mL.
